What was measured:
[1] = test system: long-chain acyl-CoA synthetase (ACSL); assay: Acyl-CoA synthetase activity in cardiac myoblasts; assay type: cell-based; settings: ApoO cells vs control (FIG. 6C)
Description: (§1) After ethical committee approval, all patients in this study gave written consent for sample collection and molecular analysis prior to inclusion. Patients were carefully selected by physicians from the Department of Cardiology, Toulouse University Hospital, prior to coronary by-pass surgery. Bioinformatics. Microarray expression data from human heart samples were downloaded from the GEO repository (GSE1145). This series consisted of 107 myocardial samples collected from patients undergoing cardiac transplantation whose failure arises from different etiologies (e.g. idiopathic dilated cardiomyopathy, ischemic cardiomyopathy, valvular cardiomyopathy, and hypertrophic cardiomyopathy) and from “normal” organ donors whose hearts cannot be used for transplants. Arrays were intensity normalized and hierarchical clustering (average group linkage, Pearson correlation, threshold r=0.8) was applied to identify groups of co-expressed genes. […] All ApoO sequences within the expression vectors were verified by DNA double strand sequencing using ABI PRISM®BigDye™ Terminator version 3.1 Ready reaction cycle sequencing kit (Life Technologies SAS, Villebon sur Yvette) and loaded on an ABI 3130XL DNA sequencing instrument (Life Technologies SAS, Villebon sur Yvette). […]

MPTP = assay: Mitochondrial calcein-cobalt assay of MPTP opening; assay type: cell-based; settings: cultured cardiac myoblasts
mouse heart = assay: Cardiac specific human ApoO transgenic mice (ApoO-Tg); assay type: in vivo
Description: After ethical committee approval, all patients in this study gave written consent for sample collection and molecular analysis prior to inclusion. Patients were carefully selected by physicians from the Department of Cardiology, Toulouse University Hospital, prior to coronary by-pass surgery. Bioinformatics. Microarray expression data from human heart samples were downloaded from the GEO repository (GSE1145). This series consisted of 107 myocardial samples collected from patients undergoing cardiac transplantation whose failure arises from different etiologies (e.g. idiopathic dilated cardiomyopathy, ischemic cardiomyopathy, valvular cardiomyopathy, and hypertrophic cardiomyopathy) and from “normal” organ donors whose hearts cannot be used for transplants. Arrays were intensity normalized and hierarchical clustering (average group linkage, Pearson correlation, threshold r=0.8) was applied to identify groups of co-expressed genes. ApoO expression levels were plotted for the 107 human hearts tested and used to define relevant molecular pathways using both Toppgene and Ingenuity Pathway Analysis (Ingenuity systems, Redwood City, Calif., USA). ApoO subcellular localization was predicted using Mitopred, mitoprot and YLoc. Animals: All animal Studies followed the INSERM Institute Animal Facility guidelines and were approved by the animal care committees of the INSERM I2MC UMR 1048. All animal procedures were performed according to the guidelines of the French Ministry of Agriculture. Animals were housed at the Toulouse I2MC animal facility in a room lit 12 h per day (6 AM-6 PM) at an ambient temperature of 22+/−1° C. Construction of ApoO Expression Vectors To overexpress human ApoO (pTT-ApoO), the ApoO coding sequence was amplified using primers hApoO5BamPTT (SEQ ID NO: 2) and hApoO3BamPTT (SEQ ID NO: 3) and cloned into the BamH1 site of pTT expression vector. pSNAP-ApoO was generated by PCR amplification of pTT-ApoO using primers SnapApoEcorV-F (SEQ ID NO: 4) and SnapApoEcorV-R (SEQ ID NO: 5) and cloned into the EcoRV site of pSNAP-Tag® (Ozyme, Saint-Quentin-en-Yvelines, France). pGEX2T-ApoO was constructed by PCR amplification of pTT-ApoO using hApoOpGEX1FBam (SEQ ID NO: 6) and hApoOpGEX1RSma (SEQ ID NO: 7) and cloned into the Bam HI/Sma I site of pGEX2T (Promega, Charbonnières-les-Bains). All primers used in this work were synthesized by Eurogentec France (Angers). All restriction enzymes used were from New England Biolabs (Ozyme, Saint-Quentin-en-Yvelines). All ApoO sequences within the expression vectors were verified by DNA double strand sequencing using ABI PRISM®BigDye™ Terminator version 3.1 Ready reaction cycle sequencing kit (Life Technologies SAS, Villebon sur Yvette) and loaded on an ABI 3130XL DNA sequencing instrument (Life Technologies SAS, Villebon sur Yvette). Cell Culture and Tranfection of H9C2 Cardic Myoblasts H9c2 were obtained from the European Collection of Cell Cultures (Salisbury, England). H9c2 cells were cultured in Dulbecco's modified Eagle medium (Life Technologies SAS, Villebon sur Yvette) adjusted to contain 1.5 g/liter sodium bicarbonate and supplemented with antibiotic-antimycotic solution (Life Technologies SAS, Villebon sur Yvette) and 10% fetal bovine serum (FBS, AbCys s.a., Paris). Cells were plated on 10-cm diameter tissue culture dish and grown in a 5% CO2 incubator at 37° C. with saturating humidity with medium changes every 2 days. H9c2 cardiomyoblasts were stably transfected by electroporation and pools of tranfectants were selected as previously published. Knock-Down of ApoO Overexpression shRNA used to knock-down ApoO gene expression and controls were from MISSION shRNA set; Sh2=TRCN 72707; Sh4=TRCN 72704; Sh5=TRCN 72705 (Sigma Aldrich, Saint-Quentin Fallavier) and used as recommended by generating pools of stable transfectants. Empty vector (no shRNA insert) control was also transfected and had no significant effect. […]

H9c2 cardiac myoblasts = assay: Measurement of O2 consumption (Oroboros Oxygraph-2k) in cardiac myoblasts; assay type: cell-based
Description: After ethical committee approval, all patients in this study gave written consent for sample collection and molecular analysis prior to inclusion. Patients were carefully selected by physicians from the Department of Cardiology, Toulouse University Hospital, prior to coronary by-pass surgery. Bioinformatics. Microarray expression data from human heart samples were downloaded from the GEO repository (GSE1145). This series consisted of 107 myocardial samples collected from patients undergoing cardiac transplantation whose failure arises from different etiologies (e.g. idiopathic dilated cardiomyopathy, ischemic cardiomyopathy, valvular cardiomyopathy, and hypertrophic cardiomyopathy) and from “normal” organ donors whose hearts cannot be used for transplants. Arrays were intensity normalized and hierarchical clustering (average group linkage, Pearson correlation, threshold r=0.8) was applied to identify groups of co-expressed genes. ApoO expression levels were plotted for the 107 human hearts tested and used to define relevant molecular pathways using both Toppgene and Ingenuity Pathway Analysis (Ingenuity systems, Redwood City, Calif., USA). ApoO subcellular localization was predicted using Mitopred, mitoprot and YLoc. Animals: All animal Studies followed the INSERM Institute Animal Facility guidelines and were approved by the animal care committees of the INSERM I2MC UMR 1048. All animal procedures were performed according to the guidelines of the French Ministry of Agriculture. Animals were housed at the Toulouse I2MC animal facility in a room lit 12 h per day (6 AM-6 PM) at an ambient temperature of 22+/−1° C. Construction of ApoO Expression Vectors To overexpress human ApoO (pTT-ApoO), the ApoO coding sequence was amplified using primers hApoO5BamPTT (SEQ ID NO: 2) and hApoO3BamPTT (SEQ ID NO: 3) and cloned into the BamH1 site of pTT expression vector. pSNAP-ApoO was generated by PCR amplification of pTT-ApoO using primers SnapApoEcorV-F (SEQ ID NO: 4) and SnapApoEcorV-R (SEQ ID NO: 5) and cloned into the EcoRV site of pSNAP-Tag® (Ozyme, Saint-Quentin-en-Yvelines, France). pGEX2T-ApoO was constructed by PCR amplification of pTT-ApoO using hApoOpGEX1FBam (SEQ ID NO: 6) and hApoOpGEX1RSma (SEQ ID NO: 7) and cloned into the Bam HI/Sma I site of pGEX2T (Promega, Charbonnières-les-Bains). All primers used in this work were synthesized by Eurogentec France (Angers). All restriction enzymes used were from New England Biolabs (Ozyme, Saint-Quentin-en-Yvelines). All ApoO sequences within the expression vectors were verified by DNA double strand sequencing using ABI PRISM®BigDye™ Terminator version 3.1 Ready reaction cycle sequencing kit (Life Technologies SAS, Villebon sur Yvette) and loaded on an ABI 3130XL DNA sequencing instrument (Life Technologies SAS, Villebon sur Yvette). Cell Culture and Tranfection of H9C2 Cardic Myoblasts H9c2 were obtained from the European Collection of Cell Cultures (Salisbury, England). H9c2 cells were cultured in Dulbecco's modified Eagle medium (Life Technologies SAS, Villebon sur Yvette) adjusted to contain 1.5 g/liter sodium bicarbonate and supplemented with antibiotic-antimycotic solution (Life Technologies SAS, Villebon sur Yvette) and 10% fetal bovine serum (FBS, AbCys s.a., Paris). Cells were plated on 10-cm diameter tissue culture dish and grown in a 5% CO2 incubator at 37° C. with saturating humidity with medium changes every 2 days. […]

VDAC = assay: Blue Native Page and GST pull-down with heart mitochondria protein extracts; assay type: binding, mouse; settings: BN-PAGE and GST pull-down
Description: as §1

glioblastoma cells = assay: Basal oxygen consumption in glioblastoma cells; assay type: cell-based; settings: cells which express ApoO vs cells treated with shApoO (FIG. 14)
Description: Further, the inventors decided to investigate the effect of transforming gliobastoma cells so that they express ApoO. For this purpose, glioblastoma cells were transformed with an adeno-associated virus 9 comprising a polynucleotide encoding ApoO.
The inventors compared the oxygen consumption after treating glioblastoma cells with a short hairpin RNA (shApoO) silencing the expression of ApoO.

cardiac myoblasts = assay: Transmission electron microscopy of cardiac myoblasts; assay type: cell-based; settings: ApoO cells
Description: as §1

B1: ApoO: 198-amino acid apolipoprotein, SEQ ID NO: 1; tested by overexpression from expression vectors or transgene (protein, listed as Homo sapiens)
chain: MFKVIQRSVGPASLSLLTFKVYAAPKKDSPPKNSVKVDELSLYSVPEGQSKYVEEARSQLEESISQLRHYCEPYTTWCQETYSQTKPKMQSLVQWGLDSYDYLQNAPPGFFPRLGVIGFAGLIGLLLARGSKIKKLVYPPGFMGLAASLYYPQQAIVFAQVSGERLYDWGLRGYIVIEDLWKENFQKPGNVKNSPGTK
- long-chain acyl-CoA synthetase (ACSL) activity [1]: strongly increased
- kinetics of MPTP opening (MPTP): alters the kinetics of MPTP opening
- cytochrome C oxidase activity in heart (mouse heart; ApoO-Tg hearts): increase
- diglyceride levels in heart (mouse heart; ApoO-Tg vs WT (FIG. 8a)): increased
- intracellular triglycerides in heart (mouse heart; ApoO-Tg vs WT (FIG. 8b)): did not significantly modify
- Bax expression in heart (mouse heart; ApoO-Tg vs WT (FIG. 9b)): enhanced
- Caspase-3 activity in heart (mouse heart; ApoO-Tg vs WT (FIG. 9c)): enhanced
- ACSL activity in heart (mouse heart; hearts from ApoO-Tg mice): significant increase
- fatty acid transporter expression in heart (mouse heart; hearts from ApoO-Tg mice): significant increase
- calcium retention capacity (mouse heart; mitochondria isolated from ApoO-Tg mice hearts): significantly diminished
- basal oxygen consumption (H9c2 cardiac myoblasts; ApoO cells vs control cardiac myoblasts (FIG. 4A)): two-fold increase
- respiration coupling (RC) (H9c2 cardiac myoblasts; ApoO cells vs control, CCCP / oligomycin oxygen consumption (FIG. 4C)): decreases
- interaction with VDAC (VDAC): excluded any interaction
- oxygen consumption (glioblastoma cells): more important
- plasma membrane morphology (TEM) (cardiac myoblasts): formation of blebs
